{"source": "paper PMC10821397", "about": "“A New Approach for Preparing Stable High-Concentration Peptide Nanoparticle Formulations” (Pharmaceuticals, 2023)", "assay_type_in_all_cases": "physicochemical", "key": {"[1]": {"assay": "Nanomilling screen (resonant acoustic milling), particle size by dynamic light scattering", "details": "DLS; for Average Radius: nanomilling screen, milled at 100 mg/mL in water, 50 G, 2 h, average of 10 acquisitions, 25 °C, ± SD; for % Pd: normalized polydispersity, screen, 100 mg/mL", "method": "A UV-Star clear, flat-bottom 96-well plate was used as a high-throughput mixing container, as described previously. […] Each well plate was sealed with a Thermo Fisher Scientific ALPS 50 V Manual Heat Sealer (Thermo Fisher Scientific Inc., Waltham, MA, USA). Each sealed well plate was then placed on a Resodyn LabRAM II Resonant Acoustic mixer (Resodyn Acoustic Mixers, Butte, MT, USA) and milled at 50 G acceleration for 2 h.\n(§1) After milling, a 5 μL aliquot of the nanosuspension sample was taken and diluted in 995 μL of D.I. water for analysis using a Wyatt DynaProTM Plate Reader II (Waters Corporation, Santa Barbara, CA, USA) dynamic light scattering instrument. A 30 μL aliquot of the diluted suspension was dispensed into a Corning® low-volume black polystyrene 384-well plate for analysis. The particle size of each sample was reported as an average of 10 acquisitions with an acquisition time of 5 s at 25 °C. Autocorrelation curves were fitted using either the cumulants or regularization method, and the average particle radius and diameters D50 and D90 were obtained and reported along with their standard deviations. The normalized polydispersity (%Pd) was calculated as the polydispersity divided by the estimated hydrodynamic radius from the cumulants fit of the autocorrelation function multiplied by 100."}, "[2]": {"assay": "Particle size of nanosuspensions on storage (dynamic light scattering)", "details": "DLS", "method": "as §1"}, "[3]": {"assay": "Physical stability (monomer content) by size-exclusion chromatography", "details": "both formulations (PVP K29-32/SDS, HPC-SL/SDS), 28 days, 4 °C, RT and 37 °C; no higher-order oligomers", "method": "An Agilent 1290 Infinity II (Agilent Technologies, Santa Clara, CA, USA) was used for chromatographic analysis. Data were acquired and processed using Empower 3 software (Waters, Milford, MA, USA). For all three peptides (GNE-A, cyclosporin A, and insulin), separations were performed in an Xbridge BEH125 SEC column ([…], 7.8 × 150 mm) for physical stability analysis. Isocratic method was applied in which 80% of the 5 mM phosphate buffer at pH 7 in acetonitrile was used as the mobile phase. The injection volume was 8 μL and the column temperature was 30 °C."}, "[4]": {"assay": "Scale-up nanosuspension, particle size by dynamic light scattering", "details": "for % Pd: normalized polydispersity, scale-up; for % Pd / Average Radius: 100 mg/mL, DLS; for Average Radius: scale-up batch, average of 10 acquisitions, 25 °C, ± SD", "method": "A 4 mL clear glass vial was used as a scale-up container. […] The vial was then placed on a Resodyn LabRAM II Resonant Acoustic mixer and milled at 50 G acceleration for 2 h. The resulting nanosuspension was recovered by using a syringe equipped with an 18 G needle.\nas §1"}, "[5]": {"details": "25% HPC-SL, 1% SDS (wt% to peptide)"}, "[6]": {"details": "25% PVP K29-32, 1% SDS (wt% to peptide)"}, "[7]": {"details": "25% Pluronic F127 (wt% to peptide)"}}}
{"substance": "Insulin (recombinant human) [Insulin Monomer]", "values": [{"measurement": "Average Radius", "setting": "[1]; [5]", "value": "130 ± 4", "unit": "nm"}, {"measurement": "Average Radius", "setting": "[1]; [6]", "value": "112 ± 2", "unit": "nm"}, {"measurement": "Average Radius", "setting": "[1]; [7]", "value": "419 ± 24", "unit": "nm"}, {"measurement": "Average Radius", "setting": "[1]; 25% Tween 80 (wt% to peptide)", "value": "903 ± 124", "unit": "nm"}, {"measurement": "% Pd", "setting": "[1]; [7]", "value": 14.6, "unit": "%"}, {"measurement": "% Pd", "setting": "[1]; 25% Tween 80 (wt% to peptide)", "value": "Multimodal"}, {"measurement": "particle size on storage", "setting": "[2]; insulin nanosuspension with HPC-SL/SDS, 4 °C and room temperature, up to 1 month", "value": "some particle growth"}, {"measurement": "particle size on storage", "setting": "[2]; insulin nanosuspension with HPC-SL/SDS, 37 °C, up to 1 month", "value": "significant aggregation"}, {"measurement": "particle size on storage", "setting": "[2]; insulin nanosuspension with PVP K29-32/SDS, 28 days at 4 °C or room temperature", "value": "No significant particle size growth"}, {"measurement": "particle size on storage", "setting": "[2]; insulin nanosuspension with PVP K29-32/SDS, up to a month at 37 °C", "value": "remained in the accepted nano-scale range"}, {"measurement": "insulin monomer concentration (SEC)", "setting": "[3]", "value": "remains quantitative"}, {"measurement": "average radius of the nanoparticles", "setting": "[4]; both formulations (HPC-SL/SDS and PVP K29-32/SDS), screen and scale-up batch", "value": "110–130 nm"}, {"measurement": "% Pd", "setting": "[4]; [5]", "value": 33.6, "unit": "%"}, {"measurement": "% Pd", "setting": "[4]; [6]", "value": 19.9, "unit": "%"}, {"measurement": "Average Radius", "setting": "[4]; [5]", "value": "135 ± 14", "unit": "nm"}, {"measurement": "Average Radius", "setting": "[4]; [6]", "value": "121 ± 5", "unit": "nm"}]}
